Data set [1] addresses T1, Folylpolyglutamate synthase, mitochondrial (Homo sapiens, UniProt Q05932).
T1 sequence (Q05932 whole entry): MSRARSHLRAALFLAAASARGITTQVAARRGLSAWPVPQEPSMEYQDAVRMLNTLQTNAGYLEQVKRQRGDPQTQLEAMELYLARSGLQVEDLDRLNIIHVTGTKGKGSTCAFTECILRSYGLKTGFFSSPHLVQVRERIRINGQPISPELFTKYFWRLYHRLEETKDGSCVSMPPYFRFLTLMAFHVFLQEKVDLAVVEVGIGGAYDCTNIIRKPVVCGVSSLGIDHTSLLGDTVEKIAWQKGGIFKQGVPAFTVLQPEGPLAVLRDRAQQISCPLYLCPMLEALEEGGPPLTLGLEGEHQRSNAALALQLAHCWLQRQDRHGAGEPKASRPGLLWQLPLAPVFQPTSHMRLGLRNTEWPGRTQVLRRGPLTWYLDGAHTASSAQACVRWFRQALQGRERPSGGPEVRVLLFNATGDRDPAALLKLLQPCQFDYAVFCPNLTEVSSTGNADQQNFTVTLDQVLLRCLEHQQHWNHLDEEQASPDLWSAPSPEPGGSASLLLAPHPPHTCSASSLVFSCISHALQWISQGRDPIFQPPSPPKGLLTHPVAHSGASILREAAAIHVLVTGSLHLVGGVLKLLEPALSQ
Description: Binding affinity as Competitive substrate in the presence of […] aminopterin towards recombinant Human Folyl-polyglutamate synthase (FPGS).

Compound in data set [2]: Nc1nc(O)c2cc(CNc3ccc4c(c3)CN([C@@H](CCC(=O)O)C(=O)O)C4=O)cnc2n1
Description: (§1) Binding affinity as Competitive substrate in the presence of 10 uM tetrahydrofolate towards recombinant Human Folyl-polyglutamate synthase (FPGS).

Compound in data set [3]: Nc1nc(O)c2c(n1)NCC(CNc1ccc3c(c1)CN([C@@H](CCC(=O)O)C(=O)O)C3=O)C2
Described as §1.

Compound in data set [4]: Nc1nc(O)c2c(n1)NCC(CNc1ccc(C(=O)NC(CCC(=O)O)C(=O)O)cc1)C2
The description is as §1.

Here are results for three molecules from ChEMBL document CHEMBL1132371, “5-deazafolate analogues with a rotationally restricted glutamate or ornithine side chain: synthesis and binding interaction with folylpolyglutamate synthetase” (J Med Chem, 1999).

By Ki is commonly meant a dissociation constant, usually derived from enzyme kinetics or from competition with a known ligand. In the case of `NCCC[C@@H](C(=O)O)N1Cc2cc(NCc3cnc4nc(N)[nH]c(=O)c4c3)ccc2C1=O`, the Ki in data set [1] stood at 110 µM.
On the same count and under the same terms, under `NCCC[C@@H](C(=O)O)N1Cc2cc(NCC3CNc4nc(N)nc(O)c4C3)ccc2C1=O` (stereo not given in full) stands 0.2 µM.

B1: Folylpolyglutamate synthase, mitochondrial (Homo sapiens), Q05932 (protein)
chain: MSRARSHLRAALFLAAASARGITTQVAARRGLSAWPVPQEPSMEYQDAVRMLNTLQTNAGYLEQVKRQRGDPQTQLEAMELYLARSGLQVEDLDRLNIIHVTGTKGKGSTCAFTECILRSYGLKTGFFSSPHLVQVRERIRINGQPISPELFTKYFWRLYHRLEETKDGSCVSMPPYFRFLTLMAFHVFLQEKVDLAVVEVGIGGAYDCTNIIRKPVVCGVSSLGIDHTSLLGDTVEKIAWQKGGIFKQGVPAFTVLQPEGPLAVLRDRAQQISCPLYLCPMLEALEEGGPPLTLGLEGEHQRSNAALALQLAHCWLQRQDRHGAGEPKASRPGLLWQLPLAPVFQPTSHMRLGLRNTEWPGRTQVLRRGPLTWYLDGAHTASSAQACVRWFRQALQGRERPSGGPEVRVLLFNATGDRDPAALLKLLQPCQFDYAVFCPNLTEVSSTGNADQQNFTVTLDQVLLRCLEHQQHWNHLDEEQASPDLWSAPSPEPGGSASLLLAPHPPHTCSASSLVFSCISHALQWISQGRDPIFQPPSPPKGLLTHPVAHSGASILREAAAIHVLVTGSLHLVGGVLKLLEPALSQ
One may read the Km as the substrate concentration at which the rate is half of its maximum. For the molecule B1, the Km in data set [2] was found to be 2.3 µM; in data set [3], 0.018 µM; in data set [4], 0.26 µM.
